Experimental data published in US20230285523A1, “USE OF ELAFIN IN THE TREATMENT OF COVID-19” (priority 2021, published 2023).
No end group written: not given here.

Columns and labels:
[1] = rats, cited from earlier work
20 S proteasome = settings: cited from earlier work
[2] = in vivo; cited from earlier work
[3] = test system: transcription factors AP-1 and NF-κB; settings: U937 cells; cited from earlier work
[4] = after heart transplantation, myocardial infarction, skeletal muscle ischemia; cited from earlier work
[5] = Phase I clinical study, single intravenous doses; format: in vivo; settings: single intravenous doses of 20 to 400 mg
[6] = Two clinical Phase II studies, intravenous doses; format: in vivo; settings: intravenous doses of 200 mg
[7] = test system: MCP-1 (macrophage chemoattractant protein-1; CCL2); settings: U937 cells, LPS; cited from earlier work
[8] = One phase I and two phase II randomized double-blind placebo-controlled clinical trials in a surgery program; format: in vivo
Text: The clinical trials in the surgery development program established an intravenous single dosing scheme with perioperative administration via infusion.

[9] = after esophageal cancer surgery

Row | Substance | accumulation in other organs, including the brain ([1]; 24 h p.i.) | radioactivity in the dissected kidney ([1]; 24 h p.i.) [%ID/g] | terminal elimination half-life in blood ([1]; bolus intravenous injection, blood) [h] | maximum accumulation in the kidney ([1]; kidney, 5 min post injection, SPECT) | share of detected radioactivity in the kidney identified as not metabolized ([1]; kidney, 24 h p.i.) [%] | inhibition of peptidase activities associated with the 20 S proteasome (20 S proteasome) | ventilator induced injury [2] | LPS-induced activation of AP-1 and NF-κB [3] | reperfusion injury [4] | tolerability [5] | tolerability [6] | production of MCP-1 [7] | kidney, liver and heart organ damages [8, 9] | organ protective effect (length of ICU stay) [8, 9] | tolerability of intravenous application ([8]; one phase I and two phase II trials, surgery program) | safety concerns ([8]; surgery program clinical trials)
1 | 99mTc-elafin: 99mTc-labeled elafin used for SPECT pharmacokinetics in rats (AQEPVKGPVSTKPGSCPIILIRCAMLNPPNRCLKDTDCPGIKKCCEGSCGMACFVPQ; ends and bridges not checked; also: 99mTc label; UniProt P19957 61-117, looked up) | no accumulation | 4.98±1.24 | 3.33 | 8.5%±0.1% | 30 |  |  |  |  |  |  |  |  |  |  | 
2 | Tiprelestat: INN name of elafin; recombinant human protein of 57 amino acids, about 6 kDa, inhibitor of elastase and proteinase 3 (AQEPVKGPVSTKPGSCPIILIRCAMLNPPNRCLKDTDCPGIKKCCEGSCGMACFVPQ; listed as Homo sapiens) |  |  |  |  |  | no inhibition | able to reduce | inhibited | suppresses reperfusion injury | well tolerated | well tolerated | inhibition of the production | trend towards lower | organ protective effect was confirmed | well tolerated | No major safety concerns were observed
